Test results published in publication PMC9482650, “Quantitative fragmentomics allow affinity mapping of interactomes” (Nature Communications, 2022).

How the values were obtained:
Test in all cases: holdup assay
Design in all cases: key: below the threshold = too weak to quantify, mostly under pKd 3.1 to 4
MAGI3_2, Q5TCQ9 = biological target: MAGI3_2, Q5TCQ9
IL16_3, Q14005 = biological target: IL16_3, Q14005
DLG5_1, Q8TDM6 = biological target: DLG5_1, Q8TDM6
PTPN3, P26045 = biological target: PTPN3, P26045
Sequence of PTPN3, P26045 (P26045 505-587): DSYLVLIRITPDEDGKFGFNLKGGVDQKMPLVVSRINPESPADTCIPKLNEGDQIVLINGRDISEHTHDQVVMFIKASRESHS

HTRA1, Q92743 = biological target: HTRA1, Q92743
Sequence of HTRA1, Q92743 (Q92743 360-477): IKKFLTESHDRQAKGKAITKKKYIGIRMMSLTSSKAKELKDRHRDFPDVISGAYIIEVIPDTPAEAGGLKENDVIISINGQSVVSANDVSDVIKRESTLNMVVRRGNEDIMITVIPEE

RADIL, Q96JH8 = biological target: T1, RADIL, Q96JH8
T1 sequence (Q96JH8 971-1071, limits assumed, looked up): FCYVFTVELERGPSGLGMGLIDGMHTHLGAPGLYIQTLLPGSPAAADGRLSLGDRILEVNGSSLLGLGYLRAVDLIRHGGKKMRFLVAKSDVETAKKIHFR

TJP1_3, Q07157 = biological target: TJP1_3, Q07157
Sequence of TJP1_3, Q07157 (Q07157 416-512): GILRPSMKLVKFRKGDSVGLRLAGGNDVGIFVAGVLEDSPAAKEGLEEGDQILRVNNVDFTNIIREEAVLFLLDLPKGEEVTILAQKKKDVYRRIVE

RAPGEF6, Q8TEU7 = biological target: T2, RAPGEF6, Q8TEU7
T2 sequence (Q8TEU7 525-625, limits assumed, looked up): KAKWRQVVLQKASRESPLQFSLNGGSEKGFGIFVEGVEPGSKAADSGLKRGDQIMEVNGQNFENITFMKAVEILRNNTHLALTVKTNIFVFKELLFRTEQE

MPP7, Q5T2T1 = biological target: T3, MPP7, Q5T2T1
T3 sequence (Q5T2T1 134-230, limits assumed, looked up): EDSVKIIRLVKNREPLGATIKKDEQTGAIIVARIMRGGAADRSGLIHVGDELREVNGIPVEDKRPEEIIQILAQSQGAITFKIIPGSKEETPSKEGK

SNTA1, Q13424 = biological target: T4, SNTA1, Q13424
T4 sequence (Q13424 82-180, limits assumed, looked up): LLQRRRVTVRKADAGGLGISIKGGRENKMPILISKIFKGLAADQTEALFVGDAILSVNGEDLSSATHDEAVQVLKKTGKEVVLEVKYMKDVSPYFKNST

SNTG2, Q9NY99 = biological target: T5, SNTG2, Q9NY99
T5 sequence (Q9NY99 68-166, limits assumed, looked up): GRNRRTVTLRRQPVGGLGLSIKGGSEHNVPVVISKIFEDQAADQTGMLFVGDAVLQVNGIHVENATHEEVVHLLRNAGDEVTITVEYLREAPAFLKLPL

PDLIM1, O00151 = biological target: PDLIM1, O00151
Sequence of PDLIM1, O00151 (O00151 1-87): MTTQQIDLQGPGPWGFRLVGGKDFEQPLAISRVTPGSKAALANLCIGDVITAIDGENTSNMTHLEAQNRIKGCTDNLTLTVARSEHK

ARHGEF11, O15085 = biological target: T6, ARHGEF11, O15085
T6 sequence (O15085 42-136, limits assumed, looked up): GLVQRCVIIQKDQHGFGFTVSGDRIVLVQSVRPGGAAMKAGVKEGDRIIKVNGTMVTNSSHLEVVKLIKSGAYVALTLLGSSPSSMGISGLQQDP

FRMPD3, Q5JV73 = biological target: FRMPD3, Q5JV73
Sequence of FRMPD3, Q5JV73 (Q5JV73 12-100): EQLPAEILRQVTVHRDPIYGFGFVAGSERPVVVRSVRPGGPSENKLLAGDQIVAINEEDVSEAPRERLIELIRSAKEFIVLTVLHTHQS

GRIP1_2, Q9Y3R0 = biological target: T7, GRIP1_2, Q9Y3R0
T7 sequence (Q9Y3R0 145-248, limits assumed, looked up): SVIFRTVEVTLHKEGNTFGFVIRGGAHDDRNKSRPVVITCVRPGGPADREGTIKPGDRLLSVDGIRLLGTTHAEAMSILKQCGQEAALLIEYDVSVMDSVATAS

Inadl_5, Q8NI35 = biological target: Inadl_5, Q8NI35
Sequence of Inadl_5, Q8NI35 (Q8NI35 673-780): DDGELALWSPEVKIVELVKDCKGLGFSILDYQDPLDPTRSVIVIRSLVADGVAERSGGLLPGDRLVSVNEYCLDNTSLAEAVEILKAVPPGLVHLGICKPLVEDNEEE

Inadl_3, Q8NI35 = biological target: Inadl_3, Q8NI35
Sequence of Inadl_3, Q8NI35 (Q8NI35 359-469): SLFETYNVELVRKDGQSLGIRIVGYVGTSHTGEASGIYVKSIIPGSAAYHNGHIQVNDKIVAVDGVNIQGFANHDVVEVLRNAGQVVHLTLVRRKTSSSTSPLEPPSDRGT

RHPN1, Q8TCX5 = biological target: T8, RHPN1, Q8TCX5
T8 sequence (Q8TCX5 508-602, limits assumed, looked up): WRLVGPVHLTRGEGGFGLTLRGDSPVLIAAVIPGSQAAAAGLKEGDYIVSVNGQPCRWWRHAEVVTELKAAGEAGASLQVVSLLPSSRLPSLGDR

GRID2IP_2, A4D2P6 = biological target: GRID2IP_2, A4D2P6
Sequence of GRID2IP_2, A4D2P6 (A4D2P6 272-370): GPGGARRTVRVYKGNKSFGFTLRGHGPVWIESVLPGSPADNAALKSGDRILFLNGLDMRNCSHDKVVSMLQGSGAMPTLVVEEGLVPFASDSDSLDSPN

IL16_1, Q14005 = biological target: IL16_1, Q14005
Sequence of IL16_1, Q14005 (Q14005 210-306): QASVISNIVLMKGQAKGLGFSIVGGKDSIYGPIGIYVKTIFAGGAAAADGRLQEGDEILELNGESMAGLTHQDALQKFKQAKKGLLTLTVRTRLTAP

MAGI2_2, Q86UL8 = biological target: MAGI2_2, Q86UL8
Sequence of MAGI2_2, Q86UL8 (Q86UL8 410-522): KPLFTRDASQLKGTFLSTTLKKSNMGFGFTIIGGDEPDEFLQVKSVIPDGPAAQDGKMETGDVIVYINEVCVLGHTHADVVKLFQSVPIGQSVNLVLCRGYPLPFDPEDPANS

LNX1_2, Q8TBB1 = biological target: LNX1_2, Q8TBB1
Sequence of LNX1_2, Q8TBB1 (Q8TBB1 371-470): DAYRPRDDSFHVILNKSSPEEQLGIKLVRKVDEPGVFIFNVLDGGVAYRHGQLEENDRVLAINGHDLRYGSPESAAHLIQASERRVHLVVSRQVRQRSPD

APBA1_1, Q02410 = biological target: T9, APBA1_1, Q02410
T9 sequence (Q02410 651-752, limits assumed, looked up): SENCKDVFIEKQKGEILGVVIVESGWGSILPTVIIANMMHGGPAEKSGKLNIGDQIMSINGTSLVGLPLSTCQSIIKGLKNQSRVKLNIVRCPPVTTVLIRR

MAST1, Q9Y2H9 = biological target: MAST1, Q9Y2H9
Sequence of MAST1, Q9Y2H9 (Q9Y2H9 962-1065): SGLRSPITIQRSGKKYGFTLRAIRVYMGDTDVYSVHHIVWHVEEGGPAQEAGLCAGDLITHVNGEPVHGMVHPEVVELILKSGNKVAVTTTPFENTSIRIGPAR

NHERF3_3, Q5T2W1 = biological target: T10, NHERF3_3, Q5T2W1
T10 sequence (Q5T2W1 238-333, limits assumed, looked up): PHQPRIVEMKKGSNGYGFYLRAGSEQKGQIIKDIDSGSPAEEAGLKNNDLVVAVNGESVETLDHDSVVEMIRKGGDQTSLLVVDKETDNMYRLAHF

ARHGEF12, Q9NZN5-2 = biological target: ARHGEF12, Q9NZN5-2
Sequence of ARHGEF12, Q9NZN5-2 (Q9NZN5 other isoform, or with tags, fused parts or gaps): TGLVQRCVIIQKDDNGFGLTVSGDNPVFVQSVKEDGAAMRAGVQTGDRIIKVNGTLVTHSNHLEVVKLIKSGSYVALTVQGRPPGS

PDZRN3_1, Q9UPQ7 = biological target: T11, PDZRN3_1, Q9UPQ7
T11 sequence (Q9UPQ7 244-349, limits assumed, looked up): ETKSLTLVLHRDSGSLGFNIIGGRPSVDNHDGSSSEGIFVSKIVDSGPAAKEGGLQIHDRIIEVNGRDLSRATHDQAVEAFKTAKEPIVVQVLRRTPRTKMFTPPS

[1] = plain residues with an end cap or a label only (N-terminal biotin on a linker: ahx)
[2] = plain residues with an end cap or a label only (N-terminal biotin on a linker: ado-ado)

Sequence of MAGI3_2, Q5TCQ9 (Q5TCQ9 398-503): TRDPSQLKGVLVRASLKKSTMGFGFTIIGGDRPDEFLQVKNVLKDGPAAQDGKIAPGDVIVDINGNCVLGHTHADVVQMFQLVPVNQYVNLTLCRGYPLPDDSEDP
Sequence of IL16_3, Q14005 (Q14005 1107-1207): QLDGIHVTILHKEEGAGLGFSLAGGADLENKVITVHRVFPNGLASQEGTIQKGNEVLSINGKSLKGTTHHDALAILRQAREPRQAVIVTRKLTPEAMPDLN
Sequence of DLG5_1, Q8TDM6 (Q8TDM6 617-713): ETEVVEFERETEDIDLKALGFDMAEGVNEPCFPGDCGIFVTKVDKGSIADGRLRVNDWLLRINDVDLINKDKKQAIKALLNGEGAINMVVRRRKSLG

In the case of HNAFLSVTTV [PDZRN4, Q6ZMN7], the pKd (MAGI3_2, Q5TCQ9; [1]) is reported as 3.58, the pKd (IL16_3, Q14005; [1]) is reported as “below the threshold” and the pKd (DLG5_1, Q8TDM6; [1]) is reported as “below the threshold”. The pKd (PTPN3, P26045; [1]) was “below the threshold”, the pKd (HTRA1, Q92743; [1]) was 3.61 and the pKd (RADIL, Q96JH8; [1]) was 3.61. For the same binder, the pKd (TJP1_3, Q07157; [1]) was “below the threshold”, the pKd (RAPGEF6, Q8TEU7; [1]) was “below the threshold” and the pKd (MPP7, Q5T2T1; [1]) was “below the threshold”. For the same binder, the pKd (SNTA1, Q13424; [1]) was 3.56, the pKd (SNTG2, Q9NY99; [1]) was 3.6 and the pKd (PDLIM1, O00151; [1]) was “below the threshold”. For the same binder, the pKd (ARHGEF11, O15085; [1]) was 3.59, the pKd (FRMPD3, Q5JV73; [1]) was “below the threshold” and the pKd (GRIP1_2, Q9Y3R0; [1]) was “below the threshold”. The pKd (Inadl_5, Q8NI35; [1]) was “below the threshold”, the pKd (Inadl_3, Q8NI35; [1]) was 3.66 and the pKd (RHPN1, Q8TCX5; [1]) was “below the threshold”. For the same binder, the pKd (GRID2IP_2, A4D2P6; [1]) was “below the threshold”, the pKd (IL16_1, Q14005; [1]) was “below the threshold” and the pKd (MAGI2_2, Q86UL8; [1]) was 3.54. For the same binder, the pKd (LNX1_2, Q8TBB1; [1]) was 3.65, the pKd (APBA1_1, Q02410; [1]) was 3.49 and the pKd (MAST1, Q9Y2H9; [1]) was 3.65. For the same binder, the pKd (NHERF3_3, Q5T2W1; [1]) was “below the threshold”, the pKd (ARHGEF12, Q9NZN5-2; [1]) was “below the threshold” and the pKd (PDZRN3_1, Q9UPQ7; [1]) was 3.56.

With NRKREIFSNF [NHERF2, Q15599] the pKd (MAGI3_2, Q5TCQ9; [1]) was “below the threshold”, the pKd (IL16_3, Q14005; [1]) was “below the threshold” and the pKd (DLG5_1, Q8TDM6; [1]) was “below the threshold”. For the same binder, the pKd (PTPN3, P26045; [1]) was “below the threshold”, the pKd (HTRA1, Q92743; [1]) was “below the threshold” and the pKd (RADIL, Q96JH8; [1]) was “below the threshold”. The pKd (TJP1_3, Q07157; [1]) was “below the threshold”, the pKd (RAPGEF6, Q8TEU7; [1]) was “below the threshold” and the pKd (MPP7, Q5T2T1; [1]) was “below the threshold”. For the same binder, the pKd (SNTA1, Q13424; [1]) was “below the threshold”, the pKd (SNTG2, Q9NY99; [1]) was “below the threshold” and the pKd (PDLIM1, O00151; [1]) was “below the threshold”. The pKd (ARHGEF11, O15085; [1]) was “below the threshold”, the pKd (FRMPD3, Q5JV73; [1]) was “below the threshold” and the pKd (GRIP1_2, Q9Y3R0; [1]) was “below the threshold”. The pKd (Inadl_5, Q8NI35; [1]) was “below the threshold”, the pKd (Inadl_3, Q8NI35; [1]) was “below the threshold” and the pKd (RHPN1, Q8TCX5; [1]) was “below the threshold”. The pKd (GRID2IP_2, A4D2P6; [1]) was “below the threshold”, the pKd (IL16_1, Q14005; [1]) was “below the threshold” and the pKd (MAGI2_2, Q86UL8; [1]) was “below the threshold”. The pKd (LNX1_2, Q8TBB1; [1]) was “below the threshold”, the pKd (APBA1_1, Q02410; [1]) was “below the threshold” and the pKd (MAST1, Q9Y2H9; [1]) was “below the threshold”. For the same binder, the pKd (NHERF3_3, Q5T2W1; [1]) was “below the threshold”, the pKd (ARHGEF12, Q9NZN5-2; [1]) was “below the threshold” and the pKd (PDZRN3_1, Q9UPQ7; [1]) was “below the threshold”.

In the case of PLSPEQPTKL [TRIM50, Q86XT4], the pKd (MAGI3_2, Q5TCQ9; [2]) is reported as “below the threshold”, the pKd (IL16_3, Q14005; [2]) is reported as “below the threshold” and the pKd (DLG5_1, Q8TDM6; [2]) is reported as “below the threshold”. For the same binder, the pKd (PTPN3, P26045; [2]) was “below the threshold”, the pKd (HTRA1, Q92743; [2]) was “below the threshold” and the pKd (RADIL, Q96JH8; [2]) was “below the threshold”. For the same binder, the pKd (TJP1_3, Q07157; [2]) was “below the threshold”, the pKd (RAPGEF6, Q8TEU7; [2]) was “below the threshold” and the pKd (MPP7, Q5T2T1; [2]) was “below the threshold”. The pKd (SNTA1, Q13424; [2]) was “below the threshold”, the pKd (SNTG2, Q9NY99; [2]) was “below the threshold” and the pKd (PDLIM1, O00151; [2]) was “below the threshold”. The pKd (ARHGEF11, O15085; [2]) was “below the threshold”, the pKd (FRMPD3, Q5JV73; [2]) was “below the threshold” and the pKd (GRIP1_2, Q9Y3R0; [2]) was “below the threshold”. The pKd (Inadl_5, Q8NI35; [2]) was “below the threshold”, the pKd (Inadl_3, Q8NI35; [2]) was “below the threshold” and the pKd (RHPN1, Q8TCX5; [2]) was “below the threshold”. The pKd (GRID2IP_2, A4D2P6; [2]) was “below the threshold”, the pKd (IL16_1, Q14005; [2]) was “below the threshold” and the pKd (MAGI2_2, Q86UL8; [2]) was “below the threshold”. For the same binder, the pKd (LNX1_2, Q8TBB1; [2]) was “below the threshold”, the pKd (APBA1_1, Q02410; [2]) was “below the threshold” and the pKd (MAST1, Q9Y2H9; [2]) was 3.97. For the same binder, the pKd (NHERF3_3, Q5T2W1; [2]) was “below the threshold”, the pKd (ARHGEF12, Q9NZN5-2; [2]) was “below the threshold” and the pKd (PDZRN3_1, Q9UPQ7; [2]) was “below the threshold”.
